Assay results published in paper doi:10.1101/2023.03.02.530591.

Target: Human Macrophage Galactose Lectin (MGL) isoform 2 extracellular domain (residues Q85-H316) (human)
Test: SAXS

Human Macrophage Galactose Lectin (MGL) isoform 2 extracellular domain (residues Q85-H316) (domain or fragment)
stoichiometry N: 3
